According to US20200377573:

System: HTRA1-inhibiting peptides (Example 3-2 and 3-3, members not named)

Sequence of Human plasma kallikrein (chain, as listed by the source): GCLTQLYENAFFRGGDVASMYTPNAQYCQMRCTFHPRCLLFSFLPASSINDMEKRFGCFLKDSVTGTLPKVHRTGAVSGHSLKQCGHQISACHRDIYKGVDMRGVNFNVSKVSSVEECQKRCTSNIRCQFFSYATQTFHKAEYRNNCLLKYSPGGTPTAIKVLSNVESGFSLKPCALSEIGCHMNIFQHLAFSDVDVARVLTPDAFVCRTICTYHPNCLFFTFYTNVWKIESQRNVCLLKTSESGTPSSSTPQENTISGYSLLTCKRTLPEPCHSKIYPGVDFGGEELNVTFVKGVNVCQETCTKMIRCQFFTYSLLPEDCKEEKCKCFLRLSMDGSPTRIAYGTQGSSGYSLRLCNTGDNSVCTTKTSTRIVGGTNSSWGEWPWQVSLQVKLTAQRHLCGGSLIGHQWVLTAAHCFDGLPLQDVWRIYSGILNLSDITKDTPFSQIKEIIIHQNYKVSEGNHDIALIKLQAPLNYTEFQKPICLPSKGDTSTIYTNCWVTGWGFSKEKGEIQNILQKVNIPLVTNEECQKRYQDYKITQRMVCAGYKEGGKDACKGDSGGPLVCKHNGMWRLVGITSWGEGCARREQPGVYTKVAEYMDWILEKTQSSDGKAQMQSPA

Substance	protease activity (decomposition of a peptide substrate)
Bovine α-chymotrypsin	did not suppress the protease activity of any of the proteases at a final inhibitor concentration of 1 micro M
Human plasma kallikrein	did not suppress the protease activity of any of the proteases at a final inhibitor concentration of 1 micro M
Human protein C	did not suppress the protease activity of any of the proteases at a final inhibitor concentration of 1 micro M
Human thrombin	did not suppress the protease activity of any of the proteases at a final inhibitor concentration of 1 micro M
Human tryptase	did not suppress the protease activity of any of the proteases at a final inhibitor concentration of 1 micro M
Human uPA	did not suppress the protease activity of any of the proteases at a final inhibitor concentration of 1 micro M
